Laboratory results published in patent publication US20240317834A1, “COMPOSITIONS AND METHODS FOR NEUROLOGICAL DISEASES” (CODA BIOTHERAPEUTICS, INC., priority 2020, published 2024).
Residue numbers refer to the chain shown, from its start. Numbers in names are those of the source.

Tested on: Lenti-X 293T cells
Assay: YFP fluorescence quenching anion reporter plate reader assay of engineered receptors stimulated with acetylcholine or a non-native ligand
Assay type: cell-based
Conditions: for percent quench of YFP fluorescence, 30 nM TC-6683: TC-6683 30 nM; for percent quench of YFP fluorescence, 300 nM TC-6683: TC-6683 300 nM; for percent quench of YFP fluorescence, 3 uM TC-6683: TC-6683 3 uM; for percent quench of YFP fluorescence, 30 uM TC-6683: TC-6683 30 uM; for percent quench of YFP fluorescence, 100 uM TC-6683: TC-6683 100 uM; for percent quench of YFP fluorescence, 10 uM ach: acetylcholine 10 uM; for percent quench of YFP fluorescence, 100 uM ach: acetylcholine 100 uM; for percent quench of YFP fluorescence, 1 mM ach: acetylcholine 1 mM; for percent quench of YFP fluorescence, 3 mM ach: acetylcholine 3 mM
Procedure, shortened: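 Lenti-X 293T cells carrying a YFP anion reporter were transiently transfected with channel DNA and assayed the next day in HEPES-buffered ECS at pH 7.2. Ligand (acetylcholine or non-native ligand) was added in NaI-substituted ECS. Percent quench was the mean of the last 10 s relative to the 15 s pre-addition baseline.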

B1: CODA534: engineered chimeric LGIC receptor, L131S, S172D in SEQ ID NO: 33 (protein)
chain: MRCSPGGVWLALAASLLHVSLQGEFQRKLYKELVKNYNPLERPVANDSQPLTVYFSLSLLQIMDVDEKNQVLTTNIWLQMSWTDHYLQWNVSEYPGVKTVRFPDGQIWKPDILLYNSADERFDATFHTNVSVNSSGHCQYLPPGIFKSSCPMDLKNFPMDVQTCKLKFGSWDYGGWSLDLQMQEADISGYIPNGEWDLVGIPGKRSERFYECCKEPYPDVTFTVTMRRRMGYYLIQMYIPSLLIVILSWISFWINMDAAPARVGLGITTVLTMTTQSSGSRASLPKVSYVKAIDIWMAVCLLFVFSALLEYAAVNFVSRQHKELLRFRRKRRHHKSPMLNLFQEDEAGEGRFNFSAYGMGPACLQAKDGISVKGANNSNTTNPPPAPSKSPEEMRKLFIQRAKKIDKISRIGFPMAFLIFNMFYWIIYKIVRREDVHNQ
modifications: synthetic sequence of chimeric LGIC
- YFP fluorescence quenching using CNL001 (1 nM CNL001, first column): 23.438%
- YFP fluorescence quenching using CNL001 (1 nM CNL001, second column): 28.59%
- YFP fluorescence quenching using TC-5619/Bradanicline (1 nM brd): −1.13%
- YFP fluorescence quenching using TC-5619/Bradanicline (3 nM brd): −3.83%
- YFP fluorescence quenching using CNL001 (10 nM CNL001, first column): 56.882%
- YFP fluorescence quenching using CNL001 (10 nM CNL001, second column): 56.777%
- YFP fluorescence quenching using TC-5619/Bradanicline (10 nM brd): −3.78%
- YFP fluorescence quenching using Facinicline (30 nM fac): −23.44
- YFP fluorescence quenching using CNL001 (50 nM CNL001, first column): 65.044%
- YFP fluorescence quenching using CNL001 (50 nM CNL001, second column): 67.373%
- YFP fluorescence quenching using ABT-126 (50 nM abt): −11.96%
- YFP fluorescence quenching using CNL001 (100 nM CNL001, first column): 68.666%
- YFP fluorescence quenching using CNL001 (100 nM CNL001, second column): 70.357%
- YFP fluorescence quenching using CNL002 (100 nM CNL002): 14.26%
- YFP fluorescence quenching using ABT-126 (100 nM abt): −10.72%
- YFP fluorescence quenching using AZD-0328 (100 nM azd0328): −9.32%
- YFP fluorescence quenching using TC-5619/Bradanicline (100 nM brd): −2.03%
- YFP fluorescence quenching using ABT-126 (300 nM abt): 11.65%
- YFP fluorescence quenching using AZD-0328 (300 nM azd0328): 4.94%
- YFP fluorescence quenching using Facinicline (300 nM fac): 2.75
- YFP fluorescence quenching using CNL001 (1 uM CNL001, first column): 73.019%
- YFP fluorescence quenching using CNL001 (1 uM CNL001, second column): 73.527%
- YFP fluorescence quenching using CNL002 (1 uM CNL002): 45.55%
- YFP fluorescence quenching using ABT-126 (1 uM abt): −3.06%
- YFP fluorescence quenching using TC-5619/Bradanicline (1 uM brd): 1.68%
- YFP fluorescence quenching using TC-6987 (1 uM tc6987): −20.99
- YFP fluorescence quenching using Facinicline (10 uM fac): 69.71
- YFP fluorescence quenching using TC-6987 (10 uM tc6987): −27.62
- YFP fluorescence quenching using CNL002 (30 uM CNL002): 64.93%
- YFP fluorescence quenching using AZD-0328 (30 uM azd0328): 60.61%
- YFP fluorescence quenching using Facinicline (30 uM fac): 61.44
- YFP fluorescence quenching using TC-6987 (500 uM tc6987): −24.22
- percent quench of YFP fluorescence, 30 nM TC-6683: −22.464%
- percent quench of YFP fluorescence, 300 nM TC-6683: −23.976%
- percent quench of YFP fluorescence, 3 uM TC-6683: −24.897%
- percent quench of YFP fluorescence, 30 uM TC-6683: −20.474%
- percent quench of YFP fluorescence, 100 uM TC-6683: −22.253%
- percent quench of YFP fluorescence, 10 uM ach: −11.3%
- percent quench of YFP fluorescence, 100 uM ach: −27.53%
- percent quench of YFP fluorescence, 1 mM ach: 2.84%
- percent quench of YFP fluorescence, 3 mM ach: 14.65%

B2: CODA535: engineered chimeric LGIC receptor, L131T, S172D in SEQ ID NO: 33 (protein)
chain: B1 chain with S131T
modifications: synthetic sequence of chimeric LGIC
- YFP fluorescence quenching using CNL001 (1 nM CNL001, first column): 8.736%
- YFP fluorescence quenching using CNL001 (1 nM CNL001, second column): 24.572%
- YFP fluorescence quenching using CNL001 (10 nM CNL001, first column): 60.552%
- YFP fluorescence quenching using CNL001 (10 nM CNL001, second column): 63.09%
- YFP fluorescence quenching using Facinicline (30 nM fac): −21.36
- YFP fluorescence quenching using CNL001 (50 nM CNL001, first column): 73.242%
- YFP fluorescence quenching using CNL001 (50 nM CNL001, second column): 73.889%
- YFP fluorescence quenching using ABT-126 (50 nM abt): −11.09%
- YFP fluorescence quenching using CNL001 (100 nM CNL001, first column): 76.147%
- YFP fluorescence quenching using CNL001 (100 nM CNL001, second column): 76.21%
- YFP fluorescence quenching using CNL002 (100 nM CNL002): 1.23%
- YFP fluorescence quenching using ABT-126 (100 nM abt): −10.37%
- YFP fluorescence quenching using AZD-0328 (100 nM azd0328): −7.02%
- YFP fluorescence quenching using ABT-126 (300 nM abt): −4%
- YFP fluorescence quenching using AZD-0328 (300 nM azd0328): −0.48%
- YFP fluorescence quenching using Facinicline (300 nM fac): 4.17
- YFP fluorescence quenching using CNL001 (1 uM CNL001, first column): 78.988%
- YFP fluorescence quenching using CNL001 (1 uM CNL001, second column): 78.818%
- YFP fluorescence quenching using CNL002 (1 uM CNL002): 35.77%
- YFP fluorescence quenching using ABT-126 (1 uM abt): 4.05%
- YFP fluorescence quenching using TC-6987 (1 uM tc6987): −21.8
- YFP fluorescence quenching using TC-6987 (10 uM tc6987): −27.08
- YFP fluorescence quenching using CNL002 (30 uM CNL002): 68.29%
- YFP fluorescence quenching using AZD-0328 (30 uM azd0328): 70.16%
- YFP fluorescence quenching using Facinicline (30 uM fac): 65.94
- YFP fluorescence quenching using TC-6987 (500 uM tc6987): −21.56
- percent quench of YFP fluorescence, 30 nM TC-6683: −29.362%
- percent quench of YFP fluorescence, 300 nM TC-6683: −28.954%
- percent quench of YFP fluorescence, 3 uM TC-6683: −23.708%
- percent quench of YFP fluorescence, 30 uM TC-6683: −23.431%
- percent quench of YFP fluorescence, 100 uM TC-6683: −18.324%
- percent quench of YFP fluorescence, 10 uM ach: −12.24%
- percent quench of YFP fluorescence, 100 uM ach: −26.23%
- percent quench of YFP fluorescence, 1 mM ach: −1.16%
- percent quench of YFP fluorescence, 3 mM ach: 2.97%

B3: CODA805: engineered chimeric LGIC receptor, Y115D, S170T in SEQ ID NO: 33 (protein)
chain: B1 chain with Y115D, S131L, S170T, D172S
modifications: synthetic sequence of chimeric LGIC
- YFP fluorescence quenching using CNL001 (1 nM CNL001, first column): −10.729%
- YFP fluorescence quenching using CNL001 (1 nM CNL001, second column): −15.278%
- YFP fluorescence quenching using TC-5619/Bradanicline (1 nM brd): −9.78%
- YFP fluorescence quenching using TC-5619/Bradanicline (3 nM brd): −12.06%
- YFP fluorescence quenching using CNL001 (10 nM CNL001, first column): −20.403%
- YFP fluorescence quenching using CNL001 (10 nM CNL001, second column): −14.905%
- YFP fluorescence quenching using TC-5619/Bradanicline (10 nM brd): −9.02%
- YFP fluorescence quenching using TC-5619/Bradanicline (30 nM brd): −16.3%
- YFP fluorescence quenching using Facinicline (30 nM fac): 38.08
- YFP fluorescence quenching using CNL001 (50 nM CNL001, first column): −14.303%
- YFP fluorescence quenching using CNL001 (50 nM CNL001, second column): −15.741%
- YFP fluorescence quenching using ABT-126 (50 nM abt): −11.83%
- YFP fluorescence quenching using CNL001 (100 nM CNL001, first column): −12.637%
- YFP fluorescence quenching using CNL001 (100 nM CNL001, second column): −10.606%
- YFP fluorescence quenching using CNL002 (100 nM CNL002): −18.17%
- YFP fluorescence quenching using ABT-126 (100 nM abt): −11.5%
- YFP fluorescence quenching using AZD-0328 (100 nM azd0328): −0.71%
- YFP fluorescence quenching using TC-5619/Bradanicline (100 nM brd): −7.44%
- YFP fluorescence quenching using Facinicline (100 nM fac): −14.37
- YFP fluorescence quenching using ABT-126 (300 nM abt): −8.01%
- YFP fluorescence quenching using AZD-0328 (300 nM azd0328): −1.73%
- YFP fluorescence quenching using TC-5619/Bradanicline (300 nM brd): −10.93%
- YFP fluorescence quenching using Facinicline (300 nM fac): 19.41
- YFP fluorescence quenching using CNL001 (1 uM CNL001, first column): −13.535%
- YFP fluorescence quenching using CNL001 (1 uM CNL001, second column): −11.335%
- YFP fluorescence quenching using CNL002 (1 uM CNL002): −15.2%
- YFP fluorescence quenching using ABT-126 (1 uM abt): −9.34%
- YFP fluorescence quenching using TC-5619/Bradanicline (1 uM brd): −4.55%
- YFP fluorescence quenching using TC-6987 (1 uM tc6987): 31.9
- YFP fluorescence quenching using Facinicline (10 uM fac): 67.33
- YFP fluorescence quenching using TC-6987 (10 uM tc6987): 25.54
- YFP fluorescence quenching using CNL002 (30 uM CNL002): −14%
- YFP fluorescence quenching using AZD-0328 (30 uM azd0328): 47.39%
- YFP fluorescence quenching using Facinicline (30 uM fac): 79.67
- YFP fluorescence quenching using TC-6987 (500 uM tc6987): 21.13
- percent quench of YFP fluorescence, 10 uM ach: −0.46%
- percent quench of YFP fluorescence, 100 uM ach: −4.93%
- percent quench of YFP fluorescence, 1 mM ach: −11.18%
- percent quench of YFP fluorescence, 3 mM ach: −3.53%
